Data set [1] concerns the molecule itself. The data set can be described thus: crystal structure; SdsAP at 27.5 mg/ml, sitting drop vapor diffusion at 293 K, 0.1 M sodium acetate pH 4.5, 0.05 M magnesium acetate, 20% PEG 4000; two monomers in the asymmetric unit; 1.76 Å.
Substrate in data set [2]: CCCCCCCCCCCCOS(=O)(=O)O
The data set is described as follows: isothermal titration calorimetry, enzyme rate assay. In kind it is biochemical, Pseudomonas sp. As to conditions: 25 °C, 25 mM Tris/HCl pH 8.0, 200 mM NaCl, 25 nM enzyme.

Consider 1 protein from article PMC5426288, “Crystal structure of thermostable alkylsulfatase SdsAP from Pseudomonas sp. S9” (Bioscience Reports, 2017).

B1: alkylsulfatase SdsAP from Pseudomonas sp. S9 (enzyme, UniProt F2WP51 42-674, looked up)
chain: AETAKPATDATKAANDALLKELPFDDKTSFDLAHKGFIAPLPAEPIKGEKGNMIWDPSKYGFIKEGEAAPDTTNPSLWRQSQLINISGLFEVTDGIYQVRNYDLSNMTIVEGKDGITIFDPLISQETAKAALDLYYKHRPKKPVVAVIYTHSHVDHYGGVRGVVDEADVKAGKVKIYAPLGFLEHAVAENVMAGTAMSRRASYMYGNLLPPDAKGQLGAGLGTTTSAGTVTLIPPTDIIKETGETHVIDGLTYEFMYAPGSEAPAEMLYYIKEKKALNAAEDSTHTLHNTYSLRGAKIRDPLAWSKYLNEALKLWGDDVQVMYAMHHWPVWGNKEVREQLSLQRDMYRYINDETLRLANKGYTMTEIAEQVKLPKKIATKFSNRGYYGSLNHNVKATYVLYLGWFIGNPATLWELPPADKAKRYVEMMGGADAVLKKAKEYYDKGDFRWVAEVVNHVVFAEPNNQAAKNMQADALEQLGYQAESGPWRNFYLTGAQELRNGVQQLPTPDTASPDTVKAMDLDLFFDFLAMRLKGPDVADKHITLNLDFTDLKQKYTLEMVNGVLNHTEGMQAKNADATVTLTRETLNNVMLKQTTLKDAESSGDIKIEGDKGKLEELMSYMDNFDFWFNIVTP
notes: SdsAP, type III alkylsulfatase of Pseudomonas sp; S9 (F2WP51); N-terminal signal peptide of 41 amino acids truncated; domains in the structure: 42-401 metallo-beta-lactamase like, 402-543 dimerization, 544-674 SCP-2-like; that this removes the His tag is inferred; source: E. coli BL21 (DE3), purified (IMAC, thrombin digestion, Mono Q, Superdex 200)
Regarding B1, the “stoichiometry N” value in data set [1] is 2. In data set [2], the Km was found to be 74.2 ± 10 µM and the kcat amounted to 4.88 ± 0.17 s⁻¹.

The stoichiometry N is the number of molecules, sites or subunits per partner or assembly. Broadly, the Km is the substrate concentration at which the rate is half of its maximum. Usually kcat stands for the number of substrate molecules converted per active site and unit of time at saturation.
